Assays:
[1] = target: T1, mnm-2 (C10A4.8) (Caenorhabditis elegans) (UniProt Q17895)
T1 sequence: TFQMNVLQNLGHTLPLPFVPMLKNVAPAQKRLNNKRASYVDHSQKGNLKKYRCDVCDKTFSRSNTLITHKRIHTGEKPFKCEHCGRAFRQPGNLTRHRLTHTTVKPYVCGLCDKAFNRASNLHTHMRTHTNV

[2] = target: T2, nhr-66 (T09A12.4) (Caenorhabditis elegans) (UniProt H2KYJ8)
T2 sequence: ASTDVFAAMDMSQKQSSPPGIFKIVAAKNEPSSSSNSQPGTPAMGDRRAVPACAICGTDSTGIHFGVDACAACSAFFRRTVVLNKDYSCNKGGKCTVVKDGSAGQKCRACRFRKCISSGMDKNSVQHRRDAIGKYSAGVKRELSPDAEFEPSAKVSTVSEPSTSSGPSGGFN

[3] = target: T3, odr-7 (T18D3.2) (Caenorhabditis elegans) (UniProt P41933)
T3 sequence: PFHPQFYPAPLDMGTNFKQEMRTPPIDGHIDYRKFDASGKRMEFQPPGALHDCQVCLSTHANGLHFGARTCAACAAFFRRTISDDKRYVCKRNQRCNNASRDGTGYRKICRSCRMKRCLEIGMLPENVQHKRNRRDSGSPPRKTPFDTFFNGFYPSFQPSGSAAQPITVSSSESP

[4] = target: T4, nhr-70 (Y51A2D.17) (Caenorhabditis elegans) (UniProt G5EEL3)
T4 sequence: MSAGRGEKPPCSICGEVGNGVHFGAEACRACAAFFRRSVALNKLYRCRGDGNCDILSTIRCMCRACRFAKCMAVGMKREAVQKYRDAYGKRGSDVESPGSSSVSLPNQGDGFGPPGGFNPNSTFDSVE

[5] = test system: T5, slr-2 (Y59A8B.13) (Caenorhabditis elegans)
T5 sequence: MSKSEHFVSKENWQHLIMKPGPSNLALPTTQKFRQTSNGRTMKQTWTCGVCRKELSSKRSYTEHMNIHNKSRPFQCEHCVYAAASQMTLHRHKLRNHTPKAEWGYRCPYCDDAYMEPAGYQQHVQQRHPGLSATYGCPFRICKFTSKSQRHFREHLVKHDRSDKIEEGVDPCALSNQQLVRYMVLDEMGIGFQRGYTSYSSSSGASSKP

[6] = target: T6, daf-12 (F11A1.3) (Caenorhabditis elegans) (UniProt G5EFF5)
T6 sequence: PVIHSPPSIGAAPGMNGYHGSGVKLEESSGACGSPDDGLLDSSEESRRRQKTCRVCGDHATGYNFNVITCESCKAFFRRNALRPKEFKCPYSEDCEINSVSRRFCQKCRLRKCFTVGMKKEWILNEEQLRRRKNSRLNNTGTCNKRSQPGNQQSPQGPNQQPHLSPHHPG

[7] = target: T7, nhr-5 (Y73F8A.21) (Caenorhabditis elegans) (UniProt Q9NA51)
T7 sequence: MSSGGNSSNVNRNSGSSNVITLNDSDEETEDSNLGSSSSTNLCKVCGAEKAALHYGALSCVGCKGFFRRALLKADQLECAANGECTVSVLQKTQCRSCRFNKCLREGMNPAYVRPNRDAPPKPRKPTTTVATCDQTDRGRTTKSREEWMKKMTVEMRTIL

[8] = target: T8, elt-6 (F52C12.5) (Caenorhabditis elegans) (UniProt G5EGN3)
T8 sequence: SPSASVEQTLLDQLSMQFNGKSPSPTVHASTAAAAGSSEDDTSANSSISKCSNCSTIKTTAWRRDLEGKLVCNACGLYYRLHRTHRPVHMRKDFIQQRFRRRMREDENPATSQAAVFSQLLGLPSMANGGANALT

[9] = target: T9, elt-7 (C18G1.2) (Caenorhabditis elegans) (UniProt O61924)
T9 sequence: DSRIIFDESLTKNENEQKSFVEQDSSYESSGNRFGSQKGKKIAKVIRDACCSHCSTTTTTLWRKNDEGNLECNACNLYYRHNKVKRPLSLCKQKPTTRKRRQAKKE

[10] = target: ZC328.2 (ZC328.2) (Caenorhabditis elegans) (UniProt O02050)
[11] = target: egrh-1 (C27C12.2) (Caenorhabditis elegans) (UniProt Q18250)
[12] = target: T10, ZK337.2 (ZK337.2) (Caenorhabditis elegans) (UniProt O46016)
T10 sequence: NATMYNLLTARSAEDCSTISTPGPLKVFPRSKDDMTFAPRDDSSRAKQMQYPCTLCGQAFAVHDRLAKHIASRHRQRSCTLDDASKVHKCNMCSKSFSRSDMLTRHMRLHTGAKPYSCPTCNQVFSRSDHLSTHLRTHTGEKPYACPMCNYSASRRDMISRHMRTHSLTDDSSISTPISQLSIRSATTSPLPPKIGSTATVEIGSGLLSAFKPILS

[13] = target: sptf-3 (Y40B1A.4) (Caenorhabditis elegans) (UniProt Q9XW26)
[14] = target: T11, let-381 (F26B1.7) (Caenorhabditis elegans) (UniProt P91278)
T11 sequence: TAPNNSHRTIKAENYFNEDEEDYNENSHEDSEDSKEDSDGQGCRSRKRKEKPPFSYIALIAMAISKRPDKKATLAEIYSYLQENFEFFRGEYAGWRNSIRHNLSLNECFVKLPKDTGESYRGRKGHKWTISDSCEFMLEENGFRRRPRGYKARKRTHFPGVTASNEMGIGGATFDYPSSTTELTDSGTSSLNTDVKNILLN

Chain of ZC328.2 (ZC328.2) (Caenorhabditis elegans) (O02050 entry or part of it): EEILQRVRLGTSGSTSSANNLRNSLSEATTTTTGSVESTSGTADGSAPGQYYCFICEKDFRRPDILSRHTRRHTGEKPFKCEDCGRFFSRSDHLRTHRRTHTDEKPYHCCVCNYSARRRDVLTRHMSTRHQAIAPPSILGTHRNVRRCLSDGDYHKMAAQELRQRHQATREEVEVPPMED
Chain of sptf-3 (Y40B1A.4) (Caenorhabditis elegans) (Q9XW26 266-412): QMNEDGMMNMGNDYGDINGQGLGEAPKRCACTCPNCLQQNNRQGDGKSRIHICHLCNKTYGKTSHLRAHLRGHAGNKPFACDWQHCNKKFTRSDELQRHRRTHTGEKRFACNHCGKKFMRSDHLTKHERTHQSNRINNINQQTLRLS
Chain of egrh-1 (C27C12.2) (Caenorhabditis elegans) (Q18250 324-461): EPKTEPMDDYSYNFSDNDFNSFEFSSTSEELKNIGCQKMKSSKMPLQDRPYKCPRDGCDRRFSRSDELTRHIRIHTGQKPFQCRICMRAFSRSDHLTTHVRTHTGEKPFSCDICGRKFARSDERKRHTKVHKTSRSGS

## GATGTGCA (double strand) [8-mer GATGTGCA]
[1]
  binding signal (PBM E-score (-0.5 to 0.5)): 0.457

## ACTACAAA (double strand) [8-mer ACTACAAA]
[2]
  binding signal (PBM E-score (-0.5 to 0.5)): 0.492
[3]
  binding signal (PBM E-score (-0.5 to 0.5)): 0.491
[4]
  binding signal (PBM E-score (-0.5 to 0.5)): 0.493
[5]
  binding signal (PBM E-score (-0.5 to 0.5)): 0.452

## AACTACAA (double strand) [8-mer AACTACAA]
[2]
  binding signal (PBM E-score (-0.5 to 0.5)): 0.489
[4]
  binding signal (PBM E-score (-0.5 to 0.5)): 0.487
[5]
  binding signal (PBM E-score (-0.5 to 0.5)): 0.492

## GAACTGCA (double strand) [8-mer GAACTGCA]
[5]
  binding signal (PBM E-score (-0.5 to 0.5)): 0.494

## ACTGCAAA (double strand) [8-mer ACTGCAAA]
[5]
  binding signal (PBM E-score (-0.5 to 0.5)): 0.487

## GACTGCAA (double strand) [8-mer GACTGCAA]
[5]
  binding signal (PBM E-score (-0.5 to 0.5)): 0.491

## AAGTACAC (double strand) [8-mer AAGTACAC]
[6]
  binding signal (PBM E-score (-0.5 to 0.5)): 0.492
[7]
  binding signal (PBM E-score (-0.5 to 0.5)): 0.457

## GCACATCC (double strand) [8-mer GCACATCC]
[1]
  binding signal (PBM E-score (-0.5 to 0.5)): 0.46

## AGAGTACA (double strand) [8-mer AGAGTACA]
[7]
  binding signal (PBM E-score (-0.5 to 0.5)): 0.48

## GCGGATCC (double strand) [8-mer GCGGATCC]
[1]
  binding signal (PBM E-score (-0.5 to 0.5)): 0.472

## GCGCATCC (double strand) [8-mer GCGCATCC]
[1]
  binding signal (PBM E-score (-0.5 to 0.5)): 0.487

## GATGCGCA (double strand) [8-mer GATGCGCA]
[1]
  binding signal (PBM E-score (-0.5 to 0.5)): 0.484

## GCCGTTCC (double strand) [8-mer GCCGTTCC]
[1]
  binding signal (PBM E-score (-0.5 to 0.5)): 0.469

## GCTGATAA (double strand) [8-mer GCTGATAA]
[8]
  binding signal (PBM E-score (-0.5 to 0.5)): 0.493
[9]
  binding signal (PBM E-score (-0.5 to 0.5)): 0.471

## AAAGAACG (double strand) [8-mer AAAGAACG]
[7]
  binding signal (PBM E-score (-0.5 to 0.5)): 0.458

## CTGATAAC (double strand) [8-mer CTGATAAC]
[8]
  binding signal (PBM E-score (-0.5 to 0.5)): 0.493
[9]
  binding signal (PBM E-score (-0.5 to 0.5)): 0.467

## TATGATAA (double strand) [8-mer TATGATAA]
[9]
  binding signal (PBM E-score (-0.5 to 0.5)): 0.457

## CCGCCCAC (double strand) [8-mer CCGCCCAC]
[10]
  binding signal (PBM E-score (-0.5 to 0.5)): 0.489
[11]
  binding signal (PBM E-score (-0.5 to 0.5)): 0.494
[12]
  binding signal (PBM E-score (-0.5 to 0.5)): 0.494
[13]
  binding signal (PBM E-score (-0.5 to 0.5)): 0.489

## CGTTATCA (double strand) [8-mer CGTTATCA]
[8]
  binding signal (PBM E-score (-0.5 to 0.5)): 0.493
[9]
  binding signal (PBM E-score (-0.5 to 0.5)): 0.478

## TATAAACA (double strand) [8-mer TATAAACA]
[14]
  binding signal (PBM E-score (-0.5 to 0.5)): 0.483

## TGATAACA (double strand) [8-mer TGATAACA]
[8]
  binding signal (PBM E-score (-0.5 to 0.5)): 0.492
[9]
  binding signal (PBM E-score (-0.5 to 0.5)): 0.458

## ATGATAAG (double strand) [8-mer ATGATAAG]
[8]
  binding signal (PBM E-score (-0.5 to 0.5)): 0.491
[9]
  binding signal (PBM E-score (-0.5 to 0.5)): 0.457

## AAAGTACA (double strand) [8-mer AAAGTACA]
[6]
  binding signal (PBM E-score (-0.5 to 0.5)): 0.497
[7]
  binding signal (PBM E-score (-0.5 to 0.5)): 0.482

## ATAAACAT (double strand) [8-mer ATAAACAT]
[14]
  binding signal (PBM E-score (-0.5 to 0.5)): 0.473

## AACTGCAA (double strand) [8-mer AACTGCAA]
[5]
  binding signal (PBM E-score (-0.5 to 0.5)): 0.495

Source: article PMC4434323
